The record followed here is PMC12678768.

The assay concerns the target HTLV-1 CA C-terminal domain, HTLV-1 CACTD (A128-L214) (Human T-cell Leukaemia Virus type 1, subtype C, isolate Aus-GM). Description: SEC; HTLV-1 CACTD on HiLoad 26/600 Superdex 75 pg, 20 mM HEPES (pH 7.0), 40 mM NaCl; purified as a dimer (Supplementary Fig. 3d).

The stoichiometry N is a count of units in the complex or per binding partner.

“HTLV-1 CA C-terminal domain, HTLV-1 CACTD (A128-L214) (domain or fragment)”: the stoichiometry N worked out at 2.
